Where two headings read alike, the source gives them in different places.
T1: VraR (Staphylococcus aureus, UniProt Q2FX09 1-209)
T1 sequence: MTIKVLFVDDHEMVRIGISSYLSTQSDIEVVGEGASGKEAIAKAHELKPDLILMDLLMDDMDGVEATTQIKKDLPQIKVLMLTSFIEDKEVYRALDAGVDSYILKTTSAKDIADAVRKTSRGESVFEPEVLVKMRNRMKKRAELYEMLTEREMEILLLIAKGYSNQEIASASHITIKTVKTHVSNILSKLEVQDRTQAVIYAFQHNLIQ

T2: WalK-LgBIT (native WalK, sensor histidine kinase) (Staphylococcus aureus, UniProt Q2FKN7 1-608)
T2 sequence (looked up): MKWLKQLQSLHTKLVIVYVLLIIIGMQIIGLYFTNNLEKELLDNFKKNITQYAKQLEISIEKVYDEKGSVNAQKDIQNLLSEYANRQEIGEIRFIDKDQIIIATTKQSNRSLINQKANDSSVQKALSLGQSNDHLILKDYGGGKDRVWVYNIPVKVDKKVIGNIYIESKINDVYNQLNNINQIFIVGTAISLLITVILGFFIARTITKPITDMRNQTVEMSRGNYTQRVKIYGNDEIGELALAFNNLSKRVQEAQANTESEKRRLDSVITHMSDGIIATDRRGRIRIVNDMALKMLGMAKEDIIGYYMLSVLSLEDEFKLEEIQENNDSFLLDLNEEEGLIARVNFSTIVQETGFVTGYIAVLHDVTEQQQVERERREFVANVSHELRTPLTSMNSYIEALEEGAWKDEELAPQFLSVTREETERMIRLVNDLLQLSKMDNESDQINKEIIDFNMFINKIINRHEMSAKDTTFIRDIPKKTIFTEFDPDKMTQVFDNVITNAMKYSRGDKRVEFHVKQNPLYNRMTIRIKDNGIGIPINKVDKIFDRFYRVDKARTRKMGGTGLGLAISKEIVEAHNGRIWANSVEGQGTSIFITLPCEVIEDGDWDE

B1: SAUSA300_0602 promoter EMSA probe (dsDNA)
DNA 1: GAAATATAAAAGTAGTAATTATTATTTGTAATATAATTGTAATATGACTGTTGTTTTAGAAATGATTGTT
DNA 2: AACAATCATTTCTAAAACAACAGTCATATTACAATTATATTACAAATAATAATTACTACTTTTATATTTC
B2: ssaA promoter EMSA probe (dsDNA)
DNA 1: AAAACTGAATGTTTCGAAAATAAGTCTGTTACAAATTTGTAATATTACTGAAAATTCTAAATGTATATTT
DNA 2: AAATATACATTTAGAATTTTCAGTAATATTACAAATTTGTAACAGACTTATTTTCGAAACATTCAGTTTT
B3: sle1 promoter EMSA probe (dsDNA)
DNA 1: TTTGATGATACAGTATATGATTTTTTTGTAATCATAATGTCATCAAACATCAACCTATTATACATAATAA
DNA 2: TTATTATGTATAATAGGTTGATGTTTGATGACATTATGATTACAAAAAAATCATATACTGTATCATCAAA
B4: ltaS promoter EMSA probe (WalR site) (dsDNA)
DNA 1: ATATTTATTAATTGAGCTATGCTTATTATTACAATTTGATTACAAATTTTAAATTTGTTAATTGAATGAT
DNA 2: ATCATTCAATTAACAAATTTAAAATTTGTAATCAAATTGTAATAATAAGCATAGCTCAATTAATAAATAT
B5: isaA promoter EMSA probe (dsDNA)
DNA 1: AAATAACACTTGATATTGTAATGTTTTGTAAAGAAAGTGTAATTTACTGGCTGGTTTTTTGTGATATAGT
DNA 2: ACTATATCACAAAAAACCAGCCAGTAAATTACACTTTCTTTACAAAACATTACAATATCAAGTGTTATTT
B6: sasD promoter EMSA probe (dsDNA)
DNA 1: CTTTTGTAATCGTATGATAATGTAAATGTAATCAAATTGTAATATAAGGGGACAAGACAATGAAAAAATT
DNA 2: AATTTTTTCATTGTCTTGTCCCCTTATATTACAATTTGATTACATTTACATTATCATACGATTACAAAAG
B7: WalR_(T101A)-SmBIT (natural protein, Staphylococcus aureus, UniProt Q2FKN8 1-233, looked up)
chain: MARKVVVVDDEKPIADILEFNLKKEGYDVYCAYDGNDAVDLIYEEEPDIVLLDIMLPGRDGMEVCREVRKKYEMPIIMLTAKDSEIDKVLGLELGADDYVAKPFSTRELIARVKANLRRHYSQPAQDTGNVTNEITIKDIVIYPDAYSIKKRGEDIELTHREFELFHYLSKHMGQVMTREHLLQTVWGYDYFGDVRTVDVTIRRLREKIEDDPSHPEYIVTRRGVGYFLQQHE
B8: ltaS promoter EMSA probe (VraR site) (dsDNA)
DNA 1: CATTAGGAGGAAATTATTTGCATCGGACTCGAGTATGAGCTACGTACCAAATATTATTTCATCATTTCTA
DNA 2: TAGAAATGATGAAATAATATTTGGTACGTAGCTCATACTCGAGTCCGATGCAAATAATTTCCTCCTAATG

Columns and labels:
[1] = target: T3, WalR (Staphylococcus aureus, UniProt Q2FKN8 1-233); test: EMSA
[2] = target: T3, WalR; test: EMSA; remark: listed apart in the source
[3] = target: T1, VraR; test: EMSA
[4] = target: T2, WalK-LgBIT (native WalK, sensor …); test: split reporter
[5] = target: T1, VraR; test: EMSA; remark: listed apart in the source
[6] = target: T3, WalR; test: EMSA; remark: listed apart in the source

T3 sequence (Q2FKN8 whole entry): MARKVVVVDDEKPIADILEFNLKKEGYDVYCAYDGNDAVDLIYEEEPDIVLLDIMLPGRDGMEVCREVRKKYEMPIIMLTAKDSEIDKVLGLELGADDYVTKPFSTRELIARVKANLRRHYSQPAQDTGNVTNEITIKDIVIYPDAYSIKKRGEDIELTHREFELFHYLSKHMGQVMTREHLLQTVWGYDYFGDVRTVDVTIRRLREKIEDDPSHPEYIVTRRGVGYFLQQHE

Row | Binder | binding result [1] | also measured
1 | B1 | binds | 
2 | B2 |  | binding result [2]: binds
3 | B3 | binds | 
4 | B4 | binds | binding result [3]: binds
5 | B5 | binds | 
6 | B6 | binds | 
7 | B7 |  | fold change of the maximal level of interaction against native WalK/WalR [4]: 1.5 fold
8 | B8 |  | binding result [5]: binds; binding result [6]: no binding

Source: article doi:10.1101/2023.02.27.530350 (bioRxiv, 2023)
